Results: the supplement of paper PMC9112550, “Optimization of the antimicrobial peptide Bac7 by deep mutational scanning” (BMC Biology, 2022)

Tested on: Escherichia coli TOP10
Experiment: shrunken log2 fold change of peptide-encoding DNA abundance (4.5 h post-induction vs induction); higher = less antimicrobial activity (less host growth inhibition)
Conditions: time post-induction: 4.5 h; library: site-saturation at positions 5, 18, 19, 20
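Further: peptides expressed intracellularly from a pBAD plasmid library in pooled LB shake-flask culture, induced with 0.3% L-arabinose, DNA abundance read by NGS, three biological replicates, DESeq2 with apeglm shrinkage.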

Sequence	shrunken log2 fold change
RRIRTRPPRLPRPRPRPGYWPRP	-0.0903
RRIRTRPPRLPRPRPRPHDDPRP	-0.0991
RRIRTRPPRLPRPRPRPHDIPRP	2.43
RRIRTRPPRLPRPRPRPHDQPRP	0.0187
RRIRTRPPRLPRPRPRPHEKPRP	-0.0018
RRIRTRPPRLPRPRPRPHEPPRP	-0.197
RRIRTRPPRLPRPRPRPHFCPRP	0.0392
RRIRTRPPRLPRPRPRPHFDPRP	-0.385
RRIRTRPPRLPRPRPRPHGFPRP	-0.0139
RRIRTRPPRLPRPRPRPHGHPRP	-0.136
RRIRTRPPRLPRPRPRPHHIPRP	-0.278
RRIRTRPPRLPRPRPRPHHPPRP	-0.135
RRIRTRPPRLPRPRPRPHITPRP	-0.625
RRIRTRPPRLPRPRPRPHIYPRP	-0.00363
RRIRTRPPRLPRPRPRPHLRPRP	-0.264
RRIRTRPPRLPRPRPRPHMKPRP	-0.712
RRIRTRPPRLPRPRPRPHNGPRP	-0.0789
RRIRTRPPRLPRPRPRPHNNPRP	-0.894
RRIRTRPPRLPRPRPRPHPKPRP	-0.0492
RRIRTRPPRLPRPRPRPHPRPRP	0.467
RRIRTRPPRLPRPRPRPHQEPRP	-0.163
RRIRTRPPRLPRPRPRPHQIPRP	0.269
RRIRTRPPRLPRPRPRPHQVPRP	-0.0174
RRIRTRPPRLPRPRPRPHRQPRP	-0.256
RRIRTRPPRLPRPRPRPHRSPRP	0.0963

Sequence	shrunken log2 fold change
RRIRTRPPRLPRPRPRPHTRPRP	0.0252
RRIRTRPPRLPRPRPRPHVEPRP	0.0236
RRIRTRPPRLPRPRPRPHWPPRP	-0.078
RRIRTRPPRLPRPRPRPHYVPRP	-0.0402
RRIRTRPPRLPRPRPRPIADPRP	-0.0123
RRIRTRPPRLPRPRPRPIDDPRP	-0.498
RRIRTRPPRLPRPRPRPIDKPRP	-0.175
RRIRTRPPRLPRPRPRPIDNPRP	-0.51
RRIRTRPPRLPRPRPRPIDQPRP	-0.00192
RRIRTRPPRLPRPRPRPIDWPRP	0.042
RRIRTRPPRLPRPRPRPIEHPRP	0.0859
RRIRTRPPRLPRPRPRPIEIPRP	-0.0171
RRIRTRPPRLPRPRPRPIFQPRP	-0.192
RRIRTRPPRLPRPRPRPIGNPRP	-0.0759
RRIRTRPPRLPRPRPRPIKNPRP	-0.185
RRIRTRPPRLPRPRPRPILNPRP	-0.403
RRIRTRPPRLPRPRPRPILVPRP	-0.0468
RRIRTRPPRLPRPRPRPIMPPRP	-0.331
RRIRTRPPRLPRPRPRPINFPRP	-0.0833
RRIRTRPPRLPRPRPRPINIPRP	-0.208
RRIRTRPPRLPRPRPRPIPCPRP	-0.0839
RRIRTRPPRLPRPRPRPIPMPRP	-0.38
RRIRTRPPRLPRPRPRPIPRPRP	0.299
RRIRTRPPRLPRPRPRPIPSPRP	-0.236
RRIRTRPPRLPRPRPRPIQTPRP	-0.0398

Sequence	shrunken log2 fold change
RRIRTRPPRLPRPRPRPIREPRP	-0.0125
RRIRTRPPRLPRPRPRPISAPRP	0.259
RRIRTRPPRLPRPRPRPISVPRP	-0.0512
RRIRTRPPRLPRPRPRPITGPRP	0.00283
RRIRTRPPRLPRPRPRPIVLPRP	-0.145
RRIRTRPPRLPRPRPRPIVNPRP	-0.655
RRIRTRPPRLPRPRPRPIWAPRP	-0.085
RRIRTRPPRLPRPRPRPKCCPRP	-0.133
RRIRTRPPRLPRPRPRPKCHPRP	-0.0989
RRIRTRPPRLPRPRPRPKDKPRP	-0.341
RRIRTRPPRLPRPRPRPKFVPRP	0.368
RRIRTRPPRLPRPRPRPKGHPRP	0.208
RRIRTRPPRLPRPRPRPKGPPRP	0.0618
RRIRTRPPRLPRPRPRPKHQPRP	0.219
RRIRTRPPRLPRPRPRPKKAPRP	-0.0102
RRIRTRPPRLPRPRPRPKKEPRP	-0.0512
RRIRTRPPRLPRPRPRPKKGPRP	-0.0611
RRIRTRPPRLPRPRPRPKKPPRP	-0.0293
RRIRTRPPRLPRPRPRPKLKPRP	-0.0522
RRIRTRPPRLPRPRPRPKMDPRP	0.0289
RRIRTRPPRLPRPRPRPKNAPRP	0.0264
RRIRTRPPRLPRPRPRPKNHPRP	-0.712
RRIRTRPPRLPRPRPRPKNMPRP	-0.359
RRIRTRPPRLPRPRPRPKNYPRP	-0.346
RRIRTRPPRLPRPRPRPKPAPRP	0.0421

Sequence	shrunken log2 fold change
RRIRTRPPRLPRPRPRPKPVPRP	0.217
RRIRTRPPRLPRPRPRPKQYPRP	-0.379
RRIRTRPPRLPRPRPRPKRLPRP	0.2
RRIRTRPPRLPRPRPRPKRSPRP	0.207
RRIRTRPPRLPRPRPRPKYCPRP	-0.0743
RRIRTRPPRLPRPRPRPLAEPRP	0.107
RRIRTRPPRLPRPRPRPLAQPRP	0.143
RRIRTRPPRLPRPRPRPLCRPRP	-0.13
RRIRTRPPRLPRPRPRPLCWPRP	0.0326
RRIRTRPPRLPRPRPRPLDGPRP	0.0872
RRIRTRPPRLPRPRPRPLDWPRP	0.398
RRIRTRPPRLPRPRPRPLFAPRP	0.228
RRIRTRPPRLPRPRPRPLFQPRP	-0.348
RRIRTRPPRLPRPRPRPLHKPRP	0.0334
RRIRTRPPRLPRPRPRPLHSPRP	0.186
RRIRTRPPRLPRPRPRPLIAPRP	0.112
RRIRTRPPRLPRPRPRPLIWPRP	0.361
RRIRTRPPRLPRPRPRPLKFPRP	-0.27
RRIRTRPPRLPRPRPRPLKIPRP	0.0669
RRIRTRPPRLPRPRPRPLKPPRP	-0.126
RRIRTRPPRLPRPRPRPLKYPRP	-0.641
RRIRTRPPRLPRPRPRPLLPPRP	0.112
RRIRTRPPRLPRPRPRPLMLPRP	-0.297
RRIRTRPPRLPRPRPRPLMWPRP	-0.151
RRIRTRPPRLPRPRPRPLNTPRP	-0.602

Sequence	shrunken log2 fold change
RRIRTRPPRLPRPRPRPLREPRP	0.318
RRIRTRPPRLPRPRPRPLRWPRP	0.856
RRIRTRPPRLPRPRPRPLSHPRP	-0.833
RRIRTRPPRLPRPRPRPLWIPRP	-0.331
RRIRTRPPRLPRPRPRPLWTPRP	-0.0962
RRIRTRPPRLPRPRPRPMACPRP	0.0855
RRIRTRPPRLPRPRPRPMAQPRP	0.074
RRIRTRPPRLPRPRPRPMCIPRP	-0.649
RRIRTRPPRLPRPRPRPMCRPRP	-0.0404
RRIRTRPPRLPRPRPRPMDCPRP	-0.0416
RRIRTRPPRLPRPRPRPMFAPRP	-0.0818
RRIRTRPPRLPRPRPRPMFWPRP	0.285
RRIRTRPPRLPRPRPRPMGIPRP	0.049
RRIRTRPPRLPRPRPRPMGVPRP	-0.174
RRIRTRPPRLPRPRPRPMHQPRP	-0.0917
RRIRTRPPRLPRPRPRPMIAPRP	0.000989
RRIRTRPPRLPRPRPRPMLGPRP	-0.0672
RRIRTRPPRLPRPRPRPMMKPRP	-0.11
RRIRTRPPRLPRPRPRPMNEPRP	-0.172
RRIRTRPPRLPRPRPRPMPHPRP	0.182
RRIRTRPPRLPRPRPRPMPTPRP	0.0982
RRIRTRPPRLPRPRPRPMPYPRP	-0.159
RRIRTRPPRLPRPRPRPMQRPRP	-0.0122
RRIRTRPPRLPRPRPRPMRAPRP	1
RRIRTRPPRLPRPRPRPMRDPRP	0.00292

Sequence	shrunken log2 fold change
RRIRTRPPRLPRPRPRPMSHPRP	-0.238
RRIRTRPPRLPRPRPRPMTYPRP	-0.0748
RRIRTRPPRLPRPRPRPMVAPRP	0.0166
RRIRTRPPRLPRPRPRPMVCPRP	0.0039
RRIRTRPPRLPRPRPRPMVHPRP	-0.00211
RRIRTRPPRLPRPRPRPMVNPRP	0.0818
RRIRTRPPRLPRPRPRPMWYPRP	-0.602
RRIRTRPPRLPRPRPRPMYMPRP	-0.0921
RRIRTRPPRLPRPRPRPNDHPRP	-0.0838
RRIRTRPPRLPRPRPRPNDMPRP	-0.209
RRIRTRPPRLPRPRPRPNFCPRP	-0.126
RRIRTRPPRLPRPRPRPNFFPRP	0.0096
RRIRTRPPRLPRPRPRPNFKPRP	-0.131
RRIRTRPPRLPRPRPRPNGQPRP	0.149
RRIRTRPPRLPRPRPRPNGYPRP	-0.12
RRIRTRPPRLPRPRPRPNHDPRP	-0.3
RRIRTRPPRLPRPRPRPNHKPRP	-0.443
RRIRTRPPRLPRPRPRPNHWPRP	0.0032
RRIRTRPPRLPRPRPRPNKEPRP	-0.00295
RRIRTRPPRLPRPRPRPNKPPRP	-0.0031
RRIRTRPPRLPRPRPRPNLQPRP	-0.0672
RRIRTRPPRLPRPRPRPNLVPRP	-0.149
RRIRTRPPRLPRPRPRPNMKPRP	-0.526
RRIRTRPPRLPRPRPRPNMSPRP	-0.562
RRIRTRPPRLPRPRPRPNNHPRP	-0.345
